The numbers were not newly measured in publication PMC6753016, which cites them from elsewhere.

Read-outs that look alike come from different tables or passages of the source.

Data set [1] concerns the target Factor XIIa (Homo sapiens) (UniProt P00748).
Data set [2] addresses Trypsin (Bos taurus) (UniProt P00760).
The target of data set [3] is Kallikrein 14 (Homo sapiens) (UniProt Q9P0G3).
Data set [4] addresses Trypsin (Bos taurus) (UniProt P00760). This is another data set of the same source.
In data set [5] the target is Kallikrein 5 (Homo sapiens) (UniProt Q9Y337).
For data set [6], the target named is Matriptase (Homo sapiens) (UniProt Q9Y5Y6).
Data set [7] deals with Kallikrein 7 (Homo sapiens) (UniProt P49862).
The target of data set [8] is Cathepsin G (Homo sapiens) (UniProt P08311).
Data set [9] concerns the target β-Trypsin (Bos taurus) (UniProt P00760).
In data set [10] the target is Cathepsin L (UniProt P07711).
Target sequence in this assay (P07711 114-288, chain 1 of 2): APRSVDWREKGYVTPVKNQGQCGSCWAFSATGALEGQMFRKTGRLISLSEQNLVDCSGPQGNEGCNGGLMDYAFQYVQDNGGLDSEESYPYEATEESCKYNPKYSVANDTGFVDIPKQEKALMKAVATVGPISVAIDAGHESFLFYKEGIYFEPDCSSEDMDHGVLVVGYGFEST
Target sequence in this assay (P07711 292-333, chain 2 of 2): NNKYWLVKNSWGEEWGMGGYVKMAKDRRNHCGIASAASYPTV
For data set [11], the target named is Cathepsin H (UniProt P09668).
Target sequence in this assay (P09668 116-335): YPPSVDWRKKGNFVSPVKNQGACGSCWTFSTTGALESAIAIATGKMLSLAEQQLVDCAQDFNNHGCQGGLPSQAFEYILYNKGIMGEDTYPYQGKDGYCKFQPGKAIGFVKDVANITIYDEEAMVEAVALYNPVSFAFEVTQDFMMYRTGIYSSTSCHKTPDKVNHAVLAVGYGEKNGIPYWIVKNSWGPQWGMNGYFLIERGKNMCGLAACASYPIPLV
In data set [12] the target is Cathepsin H (UniProt P09668). This is another data set of the same source.
Target sequence in this assay (P09668 whole entry, looked up): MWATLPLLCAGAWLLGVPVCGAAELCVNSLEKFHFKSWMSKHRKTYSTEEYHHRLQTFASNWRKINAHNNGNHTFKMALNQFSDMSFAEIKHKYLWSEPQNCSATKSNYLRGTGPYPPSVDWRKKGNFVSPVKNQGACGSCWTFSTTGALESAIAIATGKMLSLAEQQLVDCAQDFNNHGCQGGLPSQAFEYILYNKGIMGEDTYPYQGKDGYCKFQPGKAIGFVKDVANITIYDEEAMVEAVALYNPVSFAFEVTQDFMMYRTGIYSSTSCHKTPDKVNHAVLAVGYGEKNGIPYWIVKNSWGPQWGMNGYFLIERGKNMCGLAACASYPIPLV
Data set [13] addresses Cathepsin L (UniProt P07711). The source holds these as a separate data set.
Target sequence in this assay (P07711 292-333): as the sequence (P07711 292-333, chain 2 of 2) above
Data set [14] deals with Cathepsin B (UniProt P07858).
In data set [15] the target is Cathepsin L (UniProt P07711). This is another data set of the same source.
Target sequence in this assay (P07711 114-288, chain 1 of 2): as the sequence (P07711 114-288, chain 1 of 2) above
Target sequence in this assay (P07711 292-333, chain 2 of 2): as the sequence (P07711 292-333, chain 2 of 2) above
Data set [16] has as its target Cathepsin H (UniProt P09668). The source holds these as a separate data set.
Target sequence in this assay (P09668 116-335): as the sequence (P09668 116-335) above
Data set [17] concerns the target Cathepsin H (UniProt P09668). The source holds these as a separate data set.
Target sequence in this assay (P09668 whole entry, looked up): as the sequence (P09668 whole entry, looked up) above
Data set [18] concerns the target Cathepsin L (UniProt P07711). The source holds these as a separate data set.
Target sequence in this assay (P07711 292-333): as the sequence (P07711 292-333, chain 2 of 2) above
Data set [19] concerns the target Cathepsin B (UniProt P07858). This is another data set of the same source.
Data set [20] addresses Porcine elastase (Sus scrofa) (UniProt P00772).

Chain of Corn cystatin-I (P31726 25-135): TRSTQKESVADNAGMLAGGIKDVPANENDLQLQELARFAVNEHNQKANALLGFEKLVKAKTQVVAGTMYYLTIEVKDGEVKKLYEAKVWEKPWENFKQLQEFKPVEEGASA
Chain of Trypsin (Bos taurus) (P00760 149-246): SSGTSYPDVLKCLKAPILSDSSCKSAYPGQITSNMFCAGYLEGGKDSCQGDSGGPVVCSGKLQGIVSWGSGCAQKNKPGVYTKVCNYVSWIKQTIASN
Chain of Corn Hageman factor inhibitor (P01088 29-138): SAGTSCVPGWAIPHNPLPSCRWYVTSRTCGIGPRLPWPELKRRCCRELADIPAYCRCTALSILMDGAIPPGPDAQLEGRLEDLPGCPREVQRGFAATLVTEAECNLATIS
Chain of Factor XIIa (Homo sapiens) (P00748 whole entry, looked up): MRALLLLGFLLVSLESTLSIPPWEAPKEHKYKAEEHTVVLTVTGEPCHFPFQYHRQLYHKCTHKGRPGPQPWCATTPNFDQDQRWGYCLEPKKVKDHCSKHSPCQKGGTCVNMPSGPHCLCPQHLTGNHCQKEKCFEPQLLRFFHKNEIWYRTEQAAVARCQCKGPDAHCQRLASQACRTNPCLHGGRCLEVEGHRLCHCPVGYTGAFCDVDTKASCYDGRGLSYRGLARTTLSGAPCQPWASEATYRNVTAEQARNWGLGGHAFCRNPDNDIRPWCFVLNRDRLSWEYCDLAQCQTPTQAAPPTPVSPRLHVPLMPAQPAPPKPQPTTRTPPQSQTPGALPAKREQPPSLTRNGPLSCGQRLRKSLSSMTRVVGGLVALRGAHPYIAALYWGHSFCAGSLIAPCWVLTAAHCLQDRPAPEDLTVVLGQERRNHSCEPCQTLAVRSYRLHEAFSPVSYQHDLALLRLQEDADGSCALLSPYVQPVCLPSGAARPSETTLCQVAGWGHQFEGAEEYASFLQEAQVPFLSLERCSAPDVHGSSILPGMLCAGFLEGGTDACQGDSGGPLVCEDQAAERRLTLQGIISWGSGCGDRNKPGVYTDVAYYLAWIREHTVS
Chain of Kallikrein 14 (Homo sapiens) (Q9P0G3 41-267): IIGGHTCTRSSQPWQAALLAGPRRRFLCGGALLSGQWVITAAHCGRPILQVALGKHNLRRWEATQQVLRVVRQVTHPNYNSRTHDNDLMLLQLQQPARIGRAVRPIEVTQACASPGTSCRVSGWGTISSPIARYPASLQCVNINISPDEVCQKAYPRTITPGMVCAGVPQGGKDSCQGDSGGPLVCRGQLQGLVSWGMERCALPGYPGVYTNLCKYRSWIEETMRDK
Chain of MTI-2 (P26780 31-93): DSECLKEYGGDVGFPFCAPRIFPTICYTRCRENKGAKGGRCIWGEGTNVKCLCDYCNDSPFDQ
Chain of Porcine elastase (Sus scrofa) (P00772 27-266): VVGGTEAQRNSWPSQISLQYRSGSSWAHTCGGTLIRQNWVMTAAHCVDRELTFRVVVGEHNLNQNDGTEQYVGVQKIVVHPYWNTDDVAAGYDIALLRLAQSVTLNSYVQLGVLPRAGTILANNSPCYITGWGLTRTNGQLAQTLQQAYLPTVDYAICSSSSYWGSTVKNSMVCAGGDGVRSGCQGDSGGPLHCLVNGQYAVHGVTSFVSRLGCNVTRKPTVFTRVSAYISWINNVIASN
Chain of Kallikrein 7 (Homo sapiens) (P49862 30-253): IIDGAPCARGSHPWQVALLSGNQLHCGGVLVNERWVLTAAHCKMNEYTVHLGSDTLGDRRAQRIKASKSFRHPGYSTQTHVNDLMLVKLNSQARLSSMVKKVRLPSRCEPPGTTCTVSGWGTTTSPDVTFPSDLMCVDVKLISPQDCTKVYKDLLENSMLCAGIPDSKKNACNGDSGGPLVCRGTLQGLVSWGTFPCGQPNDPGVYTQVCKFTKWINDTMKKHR
Chain of Kallikrein 5 (Homo sapiens) (Q9Y337 23-293): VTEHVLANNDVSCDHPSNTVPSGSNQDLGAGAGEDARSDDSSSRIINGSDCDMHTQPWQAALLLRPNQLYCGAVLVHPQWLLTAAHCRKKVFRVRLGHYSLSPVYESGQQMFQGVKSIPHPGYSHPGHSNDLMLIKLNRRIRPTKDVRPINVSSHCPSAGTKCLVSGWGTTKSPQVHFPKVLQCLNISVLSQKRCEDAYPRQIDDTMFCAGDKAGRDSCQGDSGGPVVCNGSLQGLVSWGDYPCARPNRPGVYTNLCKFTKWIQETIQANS
Chain of Cathepsin G (Homo sapiens) (P08311 21-243): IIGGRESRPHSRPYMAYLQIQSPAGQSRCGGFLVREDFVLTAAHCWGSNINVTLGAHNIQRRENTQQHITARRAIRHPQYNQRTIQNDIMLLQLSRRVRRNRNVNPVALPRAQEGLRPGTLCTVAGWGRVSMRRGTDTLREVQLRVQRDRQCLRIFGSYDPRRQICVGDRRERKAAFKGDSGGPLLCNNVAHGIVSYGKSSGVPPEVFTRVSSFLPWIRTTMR
Chain of β-Trypsin (Bos taurus) (P00760 149-246): as the sequence (P00760 149-246) above
Chain of Matriptase (Homo sapiens) (Q9Y5Y6 whole entry): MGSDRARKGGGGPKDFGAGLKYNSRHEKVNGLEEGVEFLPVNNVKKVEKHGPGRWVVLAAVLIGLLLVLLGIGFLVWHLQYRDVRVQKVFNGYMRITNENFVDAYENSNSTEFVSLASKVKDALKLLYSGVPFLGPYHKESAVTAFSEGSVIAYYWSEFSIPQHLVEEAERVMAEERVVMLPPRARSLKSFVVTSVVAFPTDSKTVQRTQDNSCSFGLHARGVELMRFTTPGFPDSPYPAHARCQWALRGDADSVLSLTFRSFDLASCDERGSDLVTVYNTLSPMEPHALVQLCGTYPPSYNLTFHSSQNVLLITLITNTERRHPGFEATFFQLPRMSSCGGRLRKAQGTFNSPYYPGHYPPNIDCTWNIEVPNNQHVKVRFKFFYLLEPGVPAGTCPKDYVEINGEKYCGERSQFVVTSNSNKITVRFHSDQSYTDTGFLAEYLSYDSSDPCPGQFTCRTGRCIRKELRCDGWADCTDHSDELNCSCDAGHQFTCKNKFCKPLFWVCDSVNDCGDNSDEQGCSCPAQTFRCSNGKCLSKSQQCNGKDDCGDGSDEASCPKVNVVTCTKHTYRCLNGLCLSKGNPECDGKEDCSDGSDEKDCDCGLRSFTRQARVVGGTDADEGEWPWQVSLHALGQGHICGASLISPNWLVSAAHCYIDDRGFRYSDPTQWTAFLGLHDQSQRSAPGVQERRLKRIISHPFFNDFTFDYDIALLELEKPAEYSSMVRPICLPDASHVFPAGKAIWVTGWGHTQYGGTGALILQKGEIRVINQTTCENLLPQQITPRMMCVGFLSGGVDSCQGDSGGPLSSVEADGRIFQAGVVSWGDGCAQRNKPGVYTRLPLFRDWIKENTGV
Chain of MCEI-III (P10296 2-31): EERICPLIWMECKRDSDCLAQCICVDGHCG

For orientation: Ki means a dissociation constant, usually derived from enzyme kinetics or from competition with a known ligand. Take “Corn Hageman factor inhibitor (from UniProt P01088)”: the results for the inhibition constant Ki in data set [1] and in [2] were 2 nM and 23 nM, respectively.

For the substance SFTI-I (from UniProt Q4GWU5), the Ki in data set [3] was 25 nM; in data set [4], 0.17 nM; in data set [5], 140 nM; in [6] it was 200 nM; in [7] it was 740 nM; in data set [8], 730 nM.

As to MTI-2 (from UniProt P26780), the Ki in [9] is 0.01 nM.

As to Corn cystatin-I (from UniProt P31726), the Ki was 17 nM in [10], 5.7 nM in [11], 5.7 nM in data set [12] and 17 nM in data set [13].

Oryzacystatin-I (from UniProt P09229): the Ki in data set [14] was 79 nM; in data set [15], 0.73 nM; in [16], 1000 nM; in data set [17], 1000 nM; in [18] it was 0.73 nM; in [19], 79 nM.

With MCEI-III (from UniProt P10296), in data set [20], the Ki is 4 nM.
